The experiment addresses large hepatitis B surface protein (hepatitis B virus). In words: cell-based or functional assay.

For neutralizing monoclonal antibody Ma18/7, the inhibition of HBV infection of HepG2-hNTCP cells, secreted HBeAg was more than 90%.

(Values after patent US20180244726A1.)
